Reference: patent publication US20090054362

Assays:
[1] = molecular target: gp120 (SU envelope glycoprotein) (HIV-1 Ba-L) (UniProt P03375); experiment: EMSA; settings: 2'-F C and U, tRNA, room temp, also dose-dependent SPR
[2] = molecular target: HIV-1 Ba-L virus (envelope gp120) (HIV-1 Ba-L) (UniProt P03375); experiment: cell_activity; settings: 2'-F C and U; neutralization in human PBMCs, p24 ELISA

Sequence | Kd ([1]; 1x cHBS) [µM] | IC50 [2] [µM] | Kd ([1]; 1x cHBS (10 mM HEPES pH 7.4, 150 mM NaCl, 1 mM CaCl2, 1 mM MgCl2, 2.7 mM KCl)) [µM]
GGGAGACAAGACUAGACGCUCAAUGUGGGCCACGCCCGAUUUUACGCUUUUACCCGCACGCGAUUGGUUUGUUUCCC [B40t77] | 0.031 | 0.002 | –
GGGAGACAAGACUAGACGCUCAAUGUGGGCCACGCCCGAUUUUACGCUUUUACCCGCACGCGAUUGGUUUGUUUUCGACAUGAGACUCACAACAGUUCCCUUUAGUGAGGGUUAAUU [B40] | – | 0.002 | 0.021
